Measurements from paper PMC9482650, “Quantitative fragmentomics allow affinity mapping of interactomes” (Nature Communications, 2022).

T1: MPDZ_12, O75970
T1 sequence (O75970 1857-1958, limits assumed, looked up): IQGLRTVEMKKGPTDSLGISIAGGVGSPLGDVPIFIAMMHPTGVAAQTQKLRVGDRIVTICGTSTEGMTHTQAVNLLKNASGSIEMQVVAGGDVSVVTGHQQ

T2: RAPGEF6, Q8TEU7
T2 sequence (Q8TEU7 525-625, limits assumed, looked up): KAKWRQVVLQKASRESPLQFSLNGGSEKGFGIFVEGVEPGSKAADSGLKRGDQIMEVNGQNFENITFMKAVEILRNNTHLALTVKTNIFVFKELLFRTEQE

T3: APBA2_2, Q99767
T3 sequence (Q99767 654-744, limits assumed, looked up): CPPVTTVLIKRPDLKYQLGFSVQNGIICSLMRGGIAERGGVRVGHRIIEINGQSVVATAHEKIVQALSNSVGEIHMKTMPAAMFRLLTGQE

T4: GRIP1_5, Q9Y3R0
T4 sequence (Q9Y3R0 568-668, limits assumed, looked up): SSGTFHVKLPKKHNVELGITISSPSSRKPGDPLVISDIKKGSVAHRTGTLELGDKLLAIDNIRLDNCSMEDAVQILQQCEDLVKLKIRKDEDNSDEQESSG

T5: SHANK1, Q9Y566
T5 sequence (Q9Y566 658-767, limits assumed, looked up): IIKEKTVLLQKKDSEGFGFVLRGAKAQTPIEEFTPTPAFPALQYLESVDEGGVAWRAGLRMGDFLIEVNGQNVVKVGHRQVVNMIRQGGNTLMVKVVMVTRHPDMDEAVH

T6: APBA3_1, O96018
T6 sequence (O96018 389-490, limits assumed, looked up): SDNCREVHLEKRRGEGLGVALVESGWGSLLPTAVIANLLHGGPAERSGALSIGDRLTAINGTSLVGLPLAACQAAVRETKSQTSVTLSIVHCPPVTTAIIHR

T7: NHERF3_4, Q5T2W1
T7 sequence (Q5T2W1 373-468, limits assumed, looked up): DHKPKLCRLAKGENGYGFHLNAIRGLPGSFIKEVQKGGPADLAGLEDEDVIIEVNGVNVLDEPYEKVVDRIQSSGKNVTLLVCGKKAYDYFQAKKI

T8: LNX2_2, Q8N448
T8 sequence (Q8N448 334-432, limits assumed, looked up): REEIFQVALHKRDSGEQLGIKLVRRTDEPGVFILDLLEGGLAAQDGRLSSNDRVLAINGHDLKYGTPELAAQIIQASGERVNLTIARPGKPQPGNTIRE

T9: HTRA4, P83105
T9 sequence (P83105 378-476, limits assumed, looked up): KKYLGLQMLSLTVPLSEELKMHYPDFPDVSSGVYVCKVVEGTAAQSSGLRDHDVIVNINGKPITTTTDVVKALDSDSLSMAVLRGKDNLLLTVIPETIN

T10: PTPN13_1, Q12923
T10 sequence (Q12923 1088-1188, limits assumed, looked up): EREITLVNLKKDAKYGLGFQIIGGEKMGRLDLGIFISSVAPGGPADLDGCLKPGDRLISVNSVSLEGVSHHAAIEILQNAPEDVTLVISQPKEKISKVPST

T11: PDZD7_3, Q9H5P4
T11 sequence (Q9H5P4 857-944, limits assumed, looked up): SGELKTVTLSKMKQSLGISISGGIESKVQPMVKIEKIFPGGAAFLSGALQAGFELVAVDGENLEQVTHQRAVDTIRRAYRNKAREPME

B1: NCF1, P14598 (peptide)
chain: STKRKLASAV
B2: FAM110B, Q8TC76 (peptide)
chain: ARESQKVSHV

biological target: T1, MPDZ_12, O75970; test: holdup assay; design: key: below the threshold = too weak to quantify, mostly under pKd 3.1 to 4; settings: plain residues with an end cap or a label only (N-terminal biotin on a linker: ado-ado)

| Binder | pKd |
| --- | --- |
| B1 | 3.52 |
| B2 | below the threshold |

biological target: Inadl_3, Q8NI35; test: holdup assay; design: key: below the threshold = too weak to quantify, mostly under pKd 3.1 to 4; settings: plain residues with an end cap or a label only (N-terminal biotin on a linker: ado-ado)
Sequence (Q8NI35 359-469): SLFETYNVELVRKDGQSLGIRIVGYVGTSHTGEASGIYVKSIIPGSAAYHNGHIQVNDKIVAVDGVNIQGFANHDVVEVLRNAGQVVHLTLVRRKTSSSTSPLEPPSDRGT

| Binder | pKd |
| --- | --- |
| B1 | below the threshold |
| B2 | below the threshold |

biological target: DLG4_2, P78352; test: holdup assay; design: key: below the threshold = too weak to quantify, mostly under pKd 3.1 to 4; settings: plain residues with an end cap or a label only (N-terminal biotin on a linker: ado-ado)
Sequence (P78352 155-259): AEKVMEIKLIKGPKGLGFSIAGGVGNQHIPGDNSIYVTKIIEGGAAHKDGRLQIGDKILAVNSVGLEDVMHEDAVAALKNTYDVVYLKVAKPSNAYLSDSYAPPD

| Binder | pKd |
| --- | --- |
| B1 | 4.51 |
| B2 | 4.53 |

biological target: PTPN3, P26045; test: holdup assay; design: key: below the threshold = too weak to quantify, mostly under pKd 3.1 to 4; settings: plain residues with an end cap or a label only (N-terminal biotin on a linker: ado-ado)
Sequence (P26045 505-587): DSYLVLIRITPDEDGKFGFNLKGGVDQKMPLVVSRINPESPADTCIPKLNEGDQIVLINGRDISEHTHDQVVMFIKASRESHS

| Binder | pKd |
| --- | --- |
| B1 | 3.95 |
| B2 | 4.51 |

biological target: T2, RAPGEF6, Q8TEU7; test: holdup assay; design: key: below the threshold = too weak to quantify, mostly under pKd 3.1 to 4; settings: plain residues with an end cap or a label only (N-terminal biotin on a linker: ado-ado)

| Binder | pKd |
| --- | --- |
| B1 | below the threshold |
| B2 | below the threshold |

biological target: T3, APBA2_2, Q99767; test: holdup assay; design: key: below the threshold = too weak to quantify, mostly under pKd 3.1 to 4; settings: plain residues with an end cap or a label only (N-terminal biotin on a linker: ado-ado)

| Binder | pKd |
| --- | --- |
| B1 | below the threshold |
| B2 | below the threshold |

biological target: T4, GRIP1_5, Q9Y3R0; test: holdup assay; design: key: below the threshold = too weak to quantify, mostly under pKd 3.1 to 4; settings: plain residues with an end cap or a label only (N-terminal biotin on a linker: ado-ado)

| Binder | pKd |
| --- | --- |
| B1 | below the threshold |
| B2 | below the threshold |

biological target: DLG4_3, P78352; test: holdup assay; design: key: below the threshold = too weak to quantify, mostly under pKd 3.1 to 4; settings: plain residues with an end cap or a label only (N-terminal biotin on a linker: ado-ado)
Sequence (P78352 306-403): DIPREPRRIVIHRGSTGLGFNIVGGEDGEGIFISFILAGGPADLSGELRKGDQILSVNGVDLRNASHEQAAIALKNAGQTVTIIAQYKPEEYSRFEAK

| Binder | pKd |
| --- | --- |
| B1 | 3.67 |
| B2 | below the threshold |

biological target: DLG1_1, Q12959; test: holdup assay; design: key: below the threshold = too weak to quantify, mostly under pKd 3.1 to 4; settings: plain residues with an end cap or a label only (N-terminal biotin on a linker: ado-ado)

| Binder | pKd |
| --- | --- |
| B1 | 3.68 |
| B2 | 3.95 |

biological target: T5, SHANK1, Q9Y566; test: holdup assay; design: key: below the threshold = too weak to quantify, mostly under pKd 3.1 to 4; settings: plain residues with an end cap or a label only (N-terminal biotin on a linker: ado-ado)

| Binder | pKd |
| --- | --- |
| B1 | below the threshold |
| B2 | below the threshold |

biological target: PDZRN4_1, Q6ZMN7; test: holdup assay; design: key: below the threshold = too weak to quantify, mostly under pKd 3.1 to 4; settings: plain residues with an end cap or a label only (N-terminal biotin on a linker: ado-ado)
Sequence (Q6ZMN7 213-318): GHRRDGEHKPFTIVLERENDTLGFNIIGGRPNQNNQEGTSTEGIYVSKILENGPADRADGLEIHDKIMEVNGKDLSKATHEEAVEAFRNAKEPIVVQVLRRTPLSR

| Binder | pKd |
| --- | --- |
| B1 | below the threshold |
| B2 | below the threshold |

biological target: LNX1_1, Q8TBB1; test: holdup assay; design: key: below the threshold = too weak to quantify, mostly under pKd 3.1 to 4; settings: plain residues with an end cap or a label only (N-terminal biotin on a linker: ado-ado)
Sequence (Q8TBB1 261-371): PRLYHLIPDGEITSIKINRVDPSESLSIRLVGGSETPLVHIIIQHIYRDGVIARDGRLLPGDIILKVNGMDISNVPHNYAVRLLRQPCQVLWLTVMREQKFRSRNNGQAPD

| Binder | pKd |
| --- | --- |
| B1 | below the threshold |
| B2 | 3.97 |

biological target: LNX1_2, Q8TBB1; test: holdup assay; design: key: below the threshold = too weak to quantify, mostly under pKd 3.1 to 4; settings: plain residues with an end cap or a label only (N-terminal biotin on a linker: ado-ado)
Sequence (Q8TBB1 371-470): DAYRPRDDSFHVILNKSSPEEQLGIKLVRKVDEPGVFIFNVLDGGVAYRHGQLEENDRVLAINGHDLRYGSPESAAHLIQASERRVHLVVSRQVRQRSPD

| Binder | pKd |
| --- | --- |
| B1 | below the threshold |
| B2 | below the threshold |

biological target: FRMPD4, Q14CM0; test: holdup assay; design: key: below the threshold = too weak to quantify, mostly under pKd 3.1 to 4; settings: plain residues with an end cap or a label only (N-terminal biotin on a linker: ado-ado)
Sequence (Q14CM0 67-160): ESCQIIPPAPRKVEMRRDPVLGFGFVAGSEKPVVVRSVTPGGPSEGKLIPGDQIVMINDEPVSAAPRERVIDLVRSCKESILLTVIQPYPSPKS

| Binder | pKd |
| --- | --- |
| B1 | below the threshold |
| B2 | below the threshold |

biological target: LIMK2, P53671; test: holdup assay; design: key: below the threshold = too weak to quantify, mostly under pKd 3.1 to 4; settings: plain residues with an end cap or a label only (N-terminal biotin on a linker: ado-ado)
Sequence (P53671 143-248): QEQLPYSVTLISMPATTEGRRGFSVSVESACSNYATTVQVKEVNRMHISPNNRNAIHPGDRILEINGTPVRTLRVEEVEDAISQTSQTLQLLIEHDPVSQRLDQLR

| Binder | pKd |
| --- | --- |
| B1 | below the threshold |
| B2 | below the threshold |

biological target: T6, APBA3_1, O96018; test: holdup assay; design: key: below the threshold = too weak to quantify, mostly under pKd 3.1 to 4; settings: plain residues with an end cap or a label only (N-terminal biotin on a linker: ado-ado)

| Binder | pKd |
| --- | --- |
| B1 | below the threshold |
| B2 | below the threshold |

biological target: MAGI2_6, Q86UL8; test: holdup assay; design: key: below the threshold = too weak to quantify, mostly under pKd 3.1 to 4; settings: plain residues with an end cap or a label only (N-terminal biotin on a linker: ado-ado)
Sequence (Q86UL8 1141-1229): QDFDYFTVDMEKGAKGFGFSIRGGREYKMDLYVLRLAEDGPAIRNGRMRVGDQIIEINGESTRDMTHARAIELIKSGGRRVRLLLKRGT

| Binder | pKd |
| --- | --- |
| B1 | below the threshold |
| B2 | 4.43 |

biological target: T7, NHERF3_4, Q5T2W1; test: holdup assay; design: key: below the threshold = too weak to quantify, mostly under pKd 3.1 to 4; settings: plain residues with an end cap or a label only (N-terminal biotin on a linker: ado-ado)

| Binder | pKd |
| --- | --- |
| B1 | below the threshold |
| B2 | below the threshold |

biological target: AHNAK1, Q09666; test: holdup assay; design: key: below the threshold = too weak to quantify, mostly under pKd 3.1 to 4; settings: plain residues with an end cap or a label only (N-terminal biotin on a linker: ado-ado)
Sequence (Q09666 4-100): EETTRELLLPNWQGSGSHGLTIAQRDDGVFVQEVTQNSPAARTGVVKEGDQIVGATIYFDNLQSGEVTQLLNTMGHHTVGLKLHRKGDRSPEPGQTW

| Binder | pKd |
| --- | --- |
| B1 | below the threshold |
| B2 | below the threshold |

biological target: T8, LNX2_2, Q8N448; test: holdup assay; design: key: below the threshold = too weak to quantify, mostly under pKd 3.1 to 4; settings: plain residues with an end cap or a label only (N-terminal biotin on a linker: ado-ado)

| Binder | pKd |
| --- | --- |
| B1 | below the threshold |
| B2 | 4 |

biological target: Inadl_1, Q8NI35; test: holdup assay; design: key: below the threshold = too weak to quantify, mostly under pKd 3.1 to 4; settings: plain residues with an end cap or a label only (N-terminal biotin on a linker: ado-ado)
Sequence (Q8NI35 113-229): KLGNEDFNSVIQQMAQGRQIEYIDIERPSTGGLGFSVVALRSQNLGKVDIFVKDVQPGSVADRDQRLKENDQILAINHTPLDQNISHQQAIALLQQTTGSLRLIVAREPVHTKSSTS

| Binder | pKd |
| --- | --- |
| B1 | below the threshold |
| B2 | below the threshold |

biological target: T9, HTRA4, P83105; test: holdup assay; design: key: below the threshold = too weak to quantify, mostly under pKd 3.1 to 4; settings: plain residues with an end cap or a label only (N-terminal biotin on a linker: ado-ado)

| Binder | pKd |
| --- | --- |
| B1 | below the threshold |
| B2 | 4.1 |

biological target: DLG2_2, Q15700; test: holdup assay; design: key: below the threshold = too weak to quantify, mostly under pKd 3.1 to 4; settings: plain residues with an end cap or a label only (N-terminal biotin on a linker: ado-ado)
Sequence (Q15700 189-283): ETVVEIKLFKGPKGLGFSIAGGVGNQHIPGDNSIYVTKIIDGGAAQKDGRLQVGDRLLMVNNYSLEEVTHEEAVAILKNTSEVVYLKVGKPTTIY

| Binder | pKd |
| --- | --- |
| B1 | 4.16 |
| B2 | 4.24 |

biological target: Inadl_9, Q8NI35; test: holdup assay; design: key: below the threshold = too weak to quantify, mostly under pKd 3.1 to 4; settings: plain residues with an end cap or a label only (N-terminal biotin on a linker: ado-ado)
Sequence (Q8NI35 1530-1615): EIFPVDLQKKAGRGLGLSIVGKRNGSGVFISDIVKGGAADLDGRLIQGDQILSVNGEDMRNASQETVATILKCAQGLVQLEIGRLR

| Binder | pKd |
| --- | --- |
| B1 | below the threshold |
| B2 | 3.9 |

biological target: T10, PTPN13_1, Q12923; test: holdup assay; design: key: below the threshold = too weak to quantify, mostly under pKd 3.1 to 4; settings: plain residues with an end cap or a label only (N-terminal biotin on a linker: ado-ado)

| Binder | pKd |
| --- | --- |
| B1 | below the threshold |
| B2 | below the threshold |

biological target: MAGI2_5, Q86UL8; test: holdup assay; design: key: below the threshold = too weak to quantify, mostly under pKd 3.1 to 4; settings: plain residues with an end cap or a label only (N-terminal biotin on a linker: ado-ado)
Sequence (Q86UL8 915-1017): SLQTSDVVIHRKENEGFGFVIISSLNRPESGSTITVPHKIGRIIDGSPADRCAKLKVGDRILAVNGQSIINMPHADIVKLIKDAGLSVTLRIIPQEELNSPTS

| Binder | pKd |
| --- | --- |
| B1 | 3.99 |
| B2 | 3.66 |

biological target: T11, PDZD7_3, Q9H5P4; test: holdup assay; design: key: below the threshold = too weak to quantify, mostly under pKd 3.1 to 4; settings: plain residues with an end cap or a label only (N-terminal biotin on a linker: ado-ado)

| Binder | pKd |
| --- | --- |
| B1 | below the threshold |
| B2 | 4.63 |
